As usually defined, the Kd is a measure of binding affinity in units of concentration. High values mean a looser complex, low ones a tighter complex.

T1: Dpo4 (DNA polymerase IV) (Sulfolobus solfataricus, UniProt Q97W02 1-352)
T1 sequence: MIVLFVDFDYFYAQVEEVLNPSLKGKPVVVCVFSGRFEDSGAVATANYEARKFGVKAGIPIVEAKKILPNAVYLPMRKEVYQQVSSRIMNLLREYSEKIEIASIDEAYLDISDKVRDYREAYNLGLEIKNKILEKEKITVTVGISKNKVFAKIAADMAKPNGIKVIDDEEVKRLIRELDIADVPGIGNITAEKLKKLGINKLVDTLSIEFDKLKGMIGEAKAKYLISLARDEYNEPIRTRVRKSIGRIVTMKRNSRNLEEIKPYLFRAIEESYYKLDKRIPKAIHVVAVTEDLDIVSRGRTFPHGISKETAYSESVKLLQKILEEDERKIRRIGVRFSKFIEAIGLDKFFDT

B1: 21-mer/44DDP (dsDNA)
DNA 1: GTCCCTGTTCGGGCGCCAGGA
DNA 2: GATCACGAGACTAGCCTCTGGTCTCCTGGCGCCCGAACAGGGAC
modifications: cisplatin-d(GpG) intrastrand cross-link at template G20-G21 (5' to 3' numbering; GG inferred from primer 23/24 sites)
B2: 22-mer/44DDP (dsDNA)
DNA 1: GTCCCTGTTCGGGCGCCAGGAG
DNA 2: GATCACGAGACTAGCCTCTGGTCTCCTGGCGCCCGAACAGGGAC
modifications: cisplatin-d(GpG) intrastrand cross-link at template G20-G21
B3: 21-mer/44CTL (dsDNA)
DNA 1: GTCCCTGTTCGGGCGCCAGGA
DNA 2: GATCACGAGACTAGCCTCTGGTCTCCTGGCGCCCGAACAGGGAC
B4: 26-mer/44CTL (dsDNA)
DNA 1: GTCCCTGTTCGGGCGCCAGGAGACCA
DNA 2: GATCACGAGACTAGCCTCTGGTCTCCTGGCGCCCGAACAGGGAC
B5: 22-mer/44CTL (dsDNA)
DNA 1: GTCCCTGTTCGGGCGCCAGGAG
DNA 2: GATCACGAGACTAGCCTCTGGTCTCCTGGCGCCCGAACAGGGAC
B6: 27-mer/44DDP (dsDNA)
DNA 1: GTCCCTGTTCGGGCGCCAGGAGACCAG
DNA 2: GATCACGAGACTAGCCTCTGGTCTCCTGGCGCCCGAACAGGGAC
modifications: cisplatin-d(GpG) intrastrand cross-link at template G20-G21
B7: 25-mer/44DDP (dsDNA)
DNA 1: GTCCCTGTTCGGGCGCCAGGAGACC
DNA 2: GATCACGAGACTAGCCTCTGGTCTCCTGGCGCCCGAACAGGGAC
modifications: cisplatin-d(GpG) intrastrand cross-link at template G20-G21
B8: 24-mer/44DDP (dsDNA)
DNA 1: GTCCCTGTTCGGGCGCCAGGAGAC
DNA 2: GATCACGAGACTAGCCTCTGGTCTCCTGGCGCCCGAACAGGGAC
modifications: cisplatin-d(GpG) intrastrand cross-link at template G20-G21
B9: 25-mer/44CTL (dsDNA)
DNA 1: GTCCCTGTTCGGGCGCCAGGAGACC
DNA 2: GATCACGAGACTAGCCTCTGGTCTCCTGGCGCCCGAACAGGGAC
B10: 27-mer/44CTL (dsDNA)
DNA 1: GTCCCTGTTCGGGCGCCAGGAGACCAG
DNA 2: GATCACGAGACTAGCCTCTGGTCTCCTGGCGCCCGAACAGGGAC
B11: 23-mer/44DDP (dsDNA)
DNA 1: GTCCCTGTTCGGGCGCCAGGAGA
DNA 2: GATCACGAGACTAGCCTCTGGTCTCCTGGCGCCCGAACAGGGAC
modifications: cisplatin-d(GpG) intrastrand cross-link at template G20-G21
B12: 26-mer/44DDP (dsDNA)
DNA 1: GTCCCTGTTCGGGCGCCAGGAGACCA
DNA 2: GATCACGAGACTAGCCTCTGGTCTCCTGGCGCCCGAACAGGGAC
modifications: cisplatin-d(GpG) intrastrand cross-link at template G20-G21
B13: 24-mer/44CTL (dsDNA)
DNA 1: GTCCCTGTTCGGGCGCCAGGAGAC
DNA 2: GATCACGAGACTAGCCTCTGGTCTCCTGGCGCCCGAACAGGGAC
B14: 23-mer/44CTL (dsDNA)
DNA 1: GTCCCTGTTCGGGCGCCAGGAGA
DNA 2: GATCACGAGACTAGCCTCTGGTCTCCTGGCGCCCGAACAGGGAC

The target of the data set is T1, Dpo4 (DNA polymerase IV). As to the kind of experiment: EMSA. Background: In EMSA bound probe runs differently from free probe, usually more slowly.
With B1, the Kd worked out at 0.008 ± 0.001 µM.

The molecule B2 had a dissociation constant Kd of 0.021 ± 0.004 µM.

As for B3, the Kd came to 0.018 ± 0.003 µM.

On to B4, for which binding was characterised by a dissociation constant (Kd) of 0.011 ± 0.002 µM.

In the case of B5, the dissociation constant (Kd) was 0.016 ± 0.003 µM.

For B6, the affinity, expressed as Kd, was 0.017 ± 0.003 µM.

On to B7, for which the equilibrium dissociation constant (Kd) is 0.017 ± 0.004 µM.

In the case of B8, binding was put at a Kd of 0.026 ± 0.003 µM.

On to B9, for which binding was characterised by a dissociation constant (Kd) of 0.005 ± 0.001 µM.

Turning to B10, the Kd is 0.013 ± 0.004 µM.

Molecule B11 gave a Kd of 0.056 ± 0.009 µM.

B12 registered an equilibrium dissociation constant (Kd) of 0.012 ± 0.002 µM.

On to B13, for which the Kd was 0.008 ± 0.001 µM.

The molecule B14 showed an equilibrium dissociation constant (Kd) of 0.017 ± 0.002 µM.

Source of the values: article PMC2475632.
